What was measured:
[1] = IFNλ activity of supernatant, Mx1-luciferase reporter, HEK293+IFNλR1; settings: glycan lost; control: wild-type IFNλ4-FLAG
[2] = western blot of acetone-precipitated HEK293 medium; settings: glycan lost; control: wild-type IFNλ4-FLAG

B1: IFNλ4 (interferon lambda 4): N61D (protein)
parent chain: MRPSVWAAVAAGLWVLCTVIAAAPRRCLLSHYRSLEPRTLAAAKALRDRYEEEALSWGQRNCSFRPRRDPPRPSSCARLRHVARGIADAQAVLSGLHRSELLPGAGPILELLAAAGRDVAACLELARPGSSRKVPGAQKRRHKPRRADSPRCRKASVVFNLLRLLTWELRLAAHSGPCL
With B1 the expression_or_secretion [1] was “decreases” and the expression_or_secretion [2] was “decreases”.

Source: article PMC3844954
